Results reported in US20230242658A1.
pEC50, pIC50: −log10 of the molar value.

What was measured:
[1] = target: human 4-1BB on CHO-K1 cells (human) (UniProt Q07011); assay: FACS; FIG. 25D
[2] = target: human 4-1BB on CHO-K1 cells (human) (UniProt Q07011); assay: FACS blocking of 4-1BBL; FIG. 14F
[3] = target: human 4-1BB on CHO-K1 cells (human) (UniProt Q07011); assay: FACS blocking of 4-1BBL; FIG. 14G
[4] = target: human 4-1BB on CHO-K1 cells (human) (UniProt Q07011); assay: FACS blocking of 4-1BBL; FIG. 14H
[5] = target: human 4-1BB on CHO-K1 cells (human) (UniProt Q07011); assay: FACS; FIG. 11H
[6] = target: human 4-1BB on CHO-K1 cells (human) (UniProt Q07011); assay: FACS; FIG. 25B
[7] = target: human 4-1BB on CHO-K1 cells (human) (UniProt Q07011); assay: FACS; FIG. 11J
[8] = target: human 4-1BB on CHO-K1 cells (human) (UniProt Q07011); assay: FACS; FIG. 11I
[9] = target: human 4-1BB on CHO-K1 cells (human) (UniProt Q07011); assay: FACS; FIG. 25E
[10] = target: human 4-1BB on CHO-K1 cells (human) (UniProt Q07011); assay: FACS; FIG. 25A
[11] = target: human 4-1BB on CHO-K1 cells (human) (UniProt Q07011); assay: FACS; FIG. 25C

Chain of human 4-1BB on CHO-K1 cells (human) (Q07011 24-255): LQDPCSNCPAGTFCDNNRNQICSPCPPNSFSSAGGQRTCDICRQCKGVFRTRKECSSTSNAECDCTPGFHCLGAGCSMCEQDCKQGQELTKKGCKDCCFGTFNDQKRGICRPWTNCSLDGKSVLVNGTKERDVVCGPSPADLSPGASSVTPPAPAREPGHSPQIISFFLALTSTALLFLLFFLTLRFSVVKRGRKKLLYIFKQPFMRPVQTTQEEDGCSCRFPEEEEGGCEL

Urelumab
pEC50 [1]: 9.18
pIC50 [2]: 8.89
pIC50 [3]: 9.35
pIC50 [4]: 9.63
pEC50 [5]: 9.17
pEC50 [6]: 9.46
pEC50 [7]: 9.31
pEC50 [8]: 9.15
pEC50 [9]: 9.63
pEC50 [10]: 8.99
pEC50 [11]: 9.28
